# Like-named read-outs stand apart in the source and are kept apart here. Bridges are numbered along the chain shown (N, C = ends). Primed or numbered codes have the meaning given here. Where no end group is shown, it is not given here. [ ]: non-standard residue; d: D form. The star is where a group is joined. trimesoyl = trimesic acid scaffold joined by three amide bonds (bicycle); trimesoyl″ = trimesic acid scaffold joined by three amide bonds; FITC = O=C1OC2(c3ccc(O)cc3Oc3cc(O)ccc32)c2ccc(NC(=S)*)cc21; Phg = N[C@H](C(=O)O)c1ccccc1; Nle = CCCC[C@H](N)C(=O)O; Pra = C#CC[C@H](N)C(=O)O; dNal = D-naphthylalanine; Dap = NC[C@H](N)C(=O)O
# B1: Necrostatin C2 (unlabeled) (peptide)
# peptide: A[dF]W[dT]QK[Nle][dL]AH[Dap]
# modifications: linker (positions not given here) via trimesic acid (trimesoyl); not fully specified (bridges)
# notes: also called unlabeled Necrostatin C2
# B2: peptide 12, bicyclo(d-Ala-Gln-Phg-Arg-d-Asn-Pra-Ile-Asp-K-FNalR4-Dap)-K (peptide)
# peptide: [dA]Q[Phg]R[dN][Pra]IDKF[dNal]RRRR[Dap]K
# modifications: linker N-1-9-16 via trimesoyl″; not fully specified (residue 6); also: dye label on C-terminal Lys not given here
# B3: Necrostatin C1 (label not stated) (peptide)
# peptide: [Phg]Y[dA]KY[dF]G[dK]H[Dap]
# modifications: linker (positions not given here) via trimesic acid (trimesoyl); not fully specified (bridges)
# notes: As used in the TNFα-TNFR1 ELISA and the MTT assays; also called Nercostatin C1
# How the values were obtained:
# [1] = target: GST-tagged K-Ras G12V protein (Example 4) (UniProt P01116); experiment: FA, binding in solution
# [2] = target: T1, ybbR-tagged extracellular domain of human TNFα (aa 77-233) (human, UniProt P01375 77-233, biotin or Texas Red attached at the ybbR tag by Sfp where labeled TNFα was used); experiment: FA, resynthesized FITC-labeled peptide titrated with TNFα
# T1 construct: range 77-233; Expressed in E. coli from pET-22b(+)-ybbR; also called TNF-alpha; tumor necrosis factor-alpha
# [3] = target: T1, ybbR-tagged extracellular domain of …; experiment: FA competition; competitor FITC-labeled Necrostatin C1 (100 nM), TNFα 1600 nM
# [4] = target: T1, ybbR-tagged extracellular domain of …; experiment: FA competition; competitor FITC-labeled Necrostatin C2 (100 nM), TNFα 1600 nM
# [5] = target: GST-tagged K-Ras G12V protein (Example 4) (UniProt P01116); experiment: FA, binding in solution; remark: listed apart in the source
# [6] = target: T1, ybbR-tagged extracellular domain of …; experiment: competition ELISA: 0.5 nM HRP-TNFR1 on immobilized biotinylated TNFα
# Protocol: A Nunc 96F Maxisorp plate was coated overnight with 100 μL of 5 mg/mL Neutravidin (in 50 mM Na₂CO₃, pH 9.0) at 4° C. The solution was removed and each well was washed with 100 μL of the blocking buffer containing 3% BSA. […] The wells were quickly washed twice with a washing buffer (0.01% Tween 20 in PBS buffer). […] After incubation at 4° C. for 1.5 h, the plate was washed twice with the washing buffer and incubated with 100 μL of 3,3′,5,5′-tetramethylbenzidine (Sigma) for 30 min. The reaction was quenched by the addition of 100 μL of 1 M phosphoric acid. The absorbance at 450 nm was measured and plotted against the peptide concentration and the IC₅₀ value was obtained by curve fitting.
# T1 sequence (P01375 other isoform, or with tags, fused parts or gaps limits assumed): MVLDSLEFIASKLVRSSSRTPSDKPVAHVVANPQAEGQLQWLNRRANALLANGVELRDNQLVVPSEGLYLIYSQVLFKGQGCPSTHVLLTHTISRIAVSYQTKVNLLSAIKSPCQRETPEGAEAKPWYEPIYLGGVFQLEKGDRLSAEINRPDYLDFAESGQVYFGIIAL
molecule,measurement,setting,value
"peptide 13, bicyclo(Ala-Orn-Phg-Arg-d-Asn-Pra-Ile-d-Phe-K-FNalR4-Dap)-K",Kd,[1],6000 nM
[Phg]Y[dA]KY[dF]G[dK]H[Dap]K(FITC) (linker (positions not given here) via trimesoyl; not fully specified (bridges)) [FITC-labeled Necrostatin C1 (resynthesized)],Kd,[2],450 nM
B1,IC50,[3],~4000 nM
same,IC50,[4],~2000 nM
B2,Kd,[5],2000 nM
B3,IC50,[6],3100 nM
